Results published in PMC2927421, “Tyrosine-Phosphorylated Caveolin-1 Blocks Bacterial Uptake by Inducing Vav2-RhoA-Mediated Cytoskeletal Rearrangements” (PLoS Biology, 2010).
Read-outs that look alike come from different tables or passages of the source. Where no end group is shown, it is not given here. [ ]: non-standard residue; d: D form. pY = N[C@@H](Cc1ccc(OP(=O)(O)O)cc1)C(=O)O

What was measured:
[1] = target: Vav2 (UniProt P52735); assay: biotin-peptide streptavidin pull-down from lysate; conditions: reference: non-phosphorylated peptide; sites Y14
[2] = target: Phospholipase Cγ1 (PLCγ1) (UniProt P19174); assay: biotin-peptide streptavidin pull-down from lysate; conditions: reference: non-phosphorylated peptide; sites Y14
[3] = target: T1, RasA1 (Homo sapiens)
T1 chain: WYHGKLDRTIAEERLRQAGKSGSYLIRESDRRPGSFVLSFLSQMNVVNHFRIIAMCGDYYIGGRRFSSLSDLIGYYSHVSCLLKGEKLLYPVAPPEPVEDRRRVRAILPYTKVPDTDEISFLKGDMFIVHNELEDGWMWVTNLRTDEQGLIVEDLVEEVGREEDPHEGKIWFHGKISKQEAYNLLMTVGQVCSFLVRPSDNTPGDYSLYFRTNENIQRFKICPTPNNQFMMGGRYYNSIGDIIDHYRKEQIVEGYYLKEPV

[4] = target: T2, SH2 domain of Abl1 (recombinant, on protein microarray) (human, UniProt P00519 127-217)
T2 chain: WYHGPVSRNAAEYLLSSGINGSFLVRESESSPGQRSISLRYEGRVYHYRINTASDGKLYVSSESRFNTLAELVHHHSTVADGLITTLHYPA

[5] = target: T3, SH2 domain of SH2D3C (recombinant, on protein microarray) (human, UniProt Q8N5H7 220-319)
T3 chain: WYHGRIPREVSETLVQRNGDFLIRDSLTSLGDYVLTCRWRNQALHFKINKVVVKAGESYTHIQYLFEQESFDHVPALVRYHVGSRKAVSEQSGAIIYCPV

[6] = target: T4, SH2 domain of Abl2 (recombinant, on protein microarray) (human, UniProt P42684 173-263)
T4 chain: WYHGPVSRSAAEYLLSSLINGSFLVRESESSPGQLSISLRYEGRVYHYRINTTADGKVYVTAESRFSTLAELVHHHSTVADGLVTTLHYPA

[7] = target: T5, SH2 domain of Grb10 (recombinant, on protein microarray) (human, UniProt Q13322 493-574)
T5 chain: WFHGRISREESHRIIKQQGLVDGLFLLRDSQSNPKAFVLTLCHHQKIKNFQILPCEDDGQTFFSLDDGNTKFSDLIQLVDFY

[8] = target: T6, SH2 domain of Phospholipase Cγ1 (recombinant, on protein microarray) (human); assay: tandem NC SH2 domains
T6 chain: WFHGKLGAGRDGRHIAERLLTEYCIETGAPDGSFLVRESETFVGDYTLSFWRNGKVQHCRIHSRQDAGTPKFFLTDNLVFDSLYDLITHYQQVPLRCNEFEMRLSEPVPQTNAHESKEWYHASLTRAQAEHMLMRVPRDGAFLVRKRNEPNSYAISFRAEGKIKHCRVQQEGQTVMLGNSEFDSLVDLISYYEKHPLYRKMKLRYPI

[9] = target: T7, SH2 domain of Grb10 (recombinant, on protein microarray) (human, UniProt Q13322 493-574); assay: peptide or protein array; recombinant human SH2 and PTB domains spotted on protein microarrays; probed in duplicate with eight concentrations of fluorescently labeled peptide, 10 nM to 5 µM; fluorescence fit to a saturation binding equation; conditions: both partners purified
T7 construct: Grb10, human, SH2 domain
T7 sequence (looked up): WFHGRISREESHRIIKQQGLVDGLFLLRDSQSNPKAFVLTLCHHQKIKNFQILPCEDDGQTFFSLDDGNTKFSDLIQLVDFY

[10] = target: T8, SH2 domain of Abl2 (recombinant, on protein microarray) (human, UniProt P42684 173-263); assay: as above; conditions: both partners purified
T8 construct: Abl2, human, SH2 domain
T8 sequence (looked up): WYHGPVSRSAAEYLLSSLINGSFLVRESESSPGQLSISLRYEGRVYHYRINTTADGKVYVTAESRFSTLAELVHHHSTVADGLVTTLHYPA

[11] = target: T9, SH2 domain of the RhoA GEF Vav2 (recombinant, on protein microarray) (human, UniProt P52735 673-767); assay: as above; conditions: both partners purified
T9 construct: Vav2, human, SH2 domain
T9 sequence (looked up): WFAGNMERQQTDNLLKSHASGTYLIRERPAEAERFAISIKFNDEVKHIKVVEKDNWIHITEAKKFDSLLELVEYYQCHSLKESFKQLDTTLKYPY

[12] = target: T10, SH2 domain of Abl1 (recombinant, on protein microarray) (human, UniProt P00519 127-217); assay: as above; conditions: both partners purified
T10 construct: Abl1, human, SH2 domain
T10 sequence (looked up): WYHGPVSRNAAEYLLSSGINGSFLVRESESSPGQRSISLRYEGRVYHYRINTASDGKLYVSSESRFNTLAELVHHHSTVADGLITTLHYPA

[13] = target: T11, SH2 domain of Phospholipase Cγ1 (recombinant, on protein microarray) (human); assay: as above; conditions: both partners purified
T11 chain: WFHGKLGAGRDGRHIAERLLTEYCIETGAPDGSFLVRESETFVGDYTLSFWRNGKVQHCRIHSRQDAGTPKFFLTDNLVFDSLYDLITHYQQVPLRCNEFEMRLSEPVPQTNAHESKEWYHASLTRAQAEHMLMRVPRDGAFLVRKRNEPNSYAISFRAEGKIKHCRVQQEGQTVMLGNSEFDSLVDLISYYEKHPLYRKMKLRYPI

[14] = target: T12, SH2 domain of SH2D3C (recombinant, on protein microarray) (human, UniProt Q8N5H7 220-319); assay: as above; conditions: both partners purified
T12 construct: SH2D3C, human, SH2 domain
T12 sequence (looked up): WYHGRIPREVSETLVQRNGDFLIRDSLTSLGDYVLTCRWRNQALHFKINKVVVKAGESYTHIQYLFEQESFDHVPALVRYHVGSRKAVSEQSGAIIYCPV

Molecule: caveolin-1 (Cav1) 7-21 (from UniProt Q03135) pTyr14 peptide
- binding against the reference [1]: stronger
- binding against the reference [2]: stronger

Molecule: KYVDSEGHLYTVPIREQG (also: fluorescent label (position not given here)) [fluorescently labeled non-phosphorylated Cav1 peptide (residues 5-22 of Cav1)]
- Kd [3]: 1390 nM

B1: fluorescently labeled Tyr14-Cav1 phosphopeptide (residues 5-22 of Cav1, phosphorylated on Tyr14) (peptide, UniProt Q03135 5-22, looked up)
peptide: KYVDSEGHL[pY]TVPIREQG
modifications: also: fluorescent label (position not given here)
notes: caveolin-1 (Cav1), human, residues 5-22; also called Tyr14-Cav1 phosphopeptide (18 amino acids); source: synthetic peptide, purified to >95% by preparative reverse phase HPLC
- Kd [4]: 1640 nM
- Kd [5]: 874 nM
- Kd [6]: 58 nM
- Kd [7]: 1370 nM
- Kd [8]: 482 nM
- Kd [9]: < 2000 nM
- Kd [10]: < 2000 nM
- Kd [11]: 222 nM
- Kd [12]: < 2000 nM
- Kd [13]: < 2000 nM
- Kd [14]: < 2000 nM
